Laboratory results taken from paper PMC10247153 (2022).
Each block holds one binder with its values, some of them ahead of it. No end group written: not given here. Me3 = trimethyl; Me2 = dimethyl

Tests used:
[1] = biological target: T1, PHD1 (KDM5C residues 318–378) (human, UniProt P41229-1 318-378); assay: NMR; from D343
T1 chain: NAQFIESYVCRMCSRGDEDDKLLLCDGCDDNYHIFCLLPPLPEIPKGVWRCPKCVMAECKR

PHD1 D343A mutant = biological target: T2, PHD1 D343A mutant (human, UniProt P41229-1 318-378, D343A); assay: NMR; lower limit, from I361
T2 sequence: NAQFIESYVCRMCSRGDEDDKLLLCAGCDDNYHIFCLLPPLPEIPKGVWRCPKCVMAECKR

[2] = biological target: T3, unmodified 147 bp mononucleosome (human, UniProt P68431 1-136); assay: apparent, EMSA
[3] = biological target: T4, unmodified 187 bp mononucleosome (human, UniProt P68431 1-136); assay: apparent, EMSA
[4] = biological target: T3, unmodified 147 bp mononucleosome; assay: apparent, EMSA, lower limit
Avitag-PHD1 [5] = biological target: T5, Avitag-PHD1 (human, UniProt P41229-1 318-378, not fully specified; biotin on the Avitag (BirA co-expression)); assay: BLI; dissociation kobs1 (two phase)
T5 chain: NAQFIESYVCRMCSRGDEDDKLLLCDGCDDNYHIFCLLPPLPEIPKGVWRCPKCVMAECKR

Avitag-PHD1 [6] = biological target: T5, Avitag-PHD1; assay: BLI; dissociation kobs2 (two phase)
[7] = biological target: T4, unmodified 187 bp mononucleosome; assay: apparent, EMSA, lower limit
[8] = biological target: T3, unmodified 147 bp mononucleosome; assay: apparent Kd, EMSA, lower limit
[9] = biological target: T3, unmodified 147 bp mononucleosome; assay: apparent Kd, EMSA, lower limit; remark: listed apart in the source
[10] = biological target: T1, PHD1 (KDM5C residues 318–378); assay: NMR; lower limit, from I361
[11] = biological target: T1, PHD1 (KDM5C residues 318–378); assay: NMR; from I361

Kd [4]: > 15.1 µM
Kd [3]: 6.3 µM
B2: KDM5C^1–839 K101A/R107A (domain or fragment)
chain: MEPGSDDFLPPPECPVFEPSWAEFRDPLGYIAKIRPIAEKSGICKIRPPADWQPPFAVEVDNFRFTPRIQRLNELEAQTRVKLNYLDQIAKFWEIQGSSLAIPNVEARILDLYSLSKIVVEEGGYEAICKDRRWARVAQRLNYPPGKNIGSLLRSHYERIVYPYEMYQSGANLVQCNTRPFDNEEKDKEYKPHSIPLRQSVQPSKFNSYGRRAKRLQPDPEPTEEDIEKNPELKKLQIYGAGPKMMGLGLMAKDKTLRKKDKEGPECPPTVVVKEELGGDVKVESTSPKTFLESKEELSHSPEPCTKMTMRLRRNHSNAQFIESYVCRMCSRGDEDDKLLLCDGCDDNYHIFCLLPPLPEIPKGVWRCPKCVMAECKRPPEAFGFEQATREYTLQSFGEMADSFKADYFNMPVHMVPTELVEKEFWRLVNSIEEDVTVEYGADIHSKEFGSGFPVSDSKRHLTPEEEEYATSGWNLNVMPVLEQSVLCHINADISGMKVPWLYVGMVFSAFCWHIEDHWSYSINYLHWGEPKTWYGVPSLAAEHLEEVMKKLTPELFDSQPDLLHQLVTLMNPNTLMSHGVPVVRTNQCAGEFVITFPRAYHSGFNQGYNFAEAVNFCTADWLPAGRQCIEHYRRLRRYCVFSHEELICKMAACPEKLDLNLAAAVHKEMFIMVQEERRLRKALLEKGITEAEREAFELLPDDERQCIKCKTTCFLSALACYDCPDGLVCLSHINDLCKCSSSRQYLRYRYTLDELPAMLHKLKVRAESFDTWANKVRVALEVEDGRKRSLEELRALESEARERRFPNSELLQQLKNCLSEAEACVSRALGLVSGQEAG

Kd [3]: 4.3 µM
B3: KDM5C^1–839 (domain or fragment)
chain: MEPGSDDFLPPPECPVFEPSWAEFRDPLGYIAKIRPIAEKSGICKIRPPADWQPPFAVEVDNFRFTPRIQRLNELEAQTRVKLNYLDQIAKFWEIQGSSLKIPNVERRILDLYSLSKIVVEEGGYEAICKDRRWARVAQRLNYPPGKNIGSLLRSHYERIVYPYEMYQSGANLVQCNTRPFDNEEKDKEYKPHSIPLRQSVQPSKFNSYGRRAKRLQPDPEPTEEDIEKNPELKKLQIYGAGPKMMGLGLMAKDKTLRKKDKEGPECPPTVVVKEELGGDVKVESTSPKTFLESKEELSHSPEPCTKMTMRLRRNHSNAQFIESYVCRMCSRGDEDDKLLLCDGCDDNYHIFCLLPPLPEIPKGVWRCPKCVMAECKRPPEAFGFEQATREYTLQSFGEMADSFKADYFNMPVHMVPTELVEKEFWRLVNSIEEDVTVEYGADIHSKEFGSGFPVSDSKRHLTPEEEEYATSGWNLNVMPVLEQSVLCHINADISGMKVPWLYVGMVFSAFCWHIEDHWSYSINYLHWGEPKTWYGVPSLAAEHLEEVMKKLTPELFDSQPDLLHQLVTLMNPNTLMSHGVPVVRTNQCAGEFVITFPRAYHSGFNQGYNFAEAVNFCTADWLPAGRQCIEHYRRLRRYCVFSHEELICKMAACPEKLDLNLAAAVHKEMFIMVQEERRLRKALLEKGITEAEREAFELLPDDERQCIKCKTTCFLSALACYDCPDGLVCLSHINDLCKCSSSRQYLRYRYTLDELPAMLHKLKVRAESFDTWANKVRVALEVEDGRKRSLEELRALESEARERRFPNSELLQQLKNCLSEAEACVSRALGLVSGQEAG

koff (Avitag-PHD1 [5]): 1.45 s⁻¹
Kd [1]: 440 µM
koff (Avitag-PHD1 [6]): 0.02 s⁻¹
Binder: Ac-QSVQPSKFNSYGRRAKRLQP-NH2 [KDM5C (199–218) peptide]

Kd [4]: > 35 µM
Kd [7]: > 42 µM
Kd [8]: > 35 µM
B4: KDM5C^(1–839 ΔAP) (domain or fragment)
chain: MEPGSDDFLPPPECPVFEPSWAEFRDPLGYIAKIRPIAEKSGICKIRPPADWQPPFAVEVDNFRFTPRIQRLNELEAQTRVKGGGGPPEAFGFEQATREYTLQSFGEMADSFKADYFNMPVHMVPTELVEKEFWRLVNSIEEDVTVEYGADIHSKEFGSGFPVSDSKRHLTPEEEEYATSGWNLNVMPVLEQSVLCHINADISGMKVPWLYVGMVFSAFCWHIEDHWSYSINYLHWGEPKTWYGVPSLAAEHLEEVMKKLTPELFDSQPDLLHQLVTLMNPNTLMSHGVPVVRTNQCAGEFVITFPRAYHSGFNQGYNFAEAVNFCTADWLPAGRQCIEHYRRLRRYCVFSHEELICKMAACPEKLDLNLAAAVHKEMFIMVQEERRLRKALLEKGITEAEREAFELLPDDERQCIKCKTTCFLSALACYDCPDGLVCLSHINDLCKCSSSRQYLRYRYTLDELPAMLHKLKVRAESFDTWANKVRVALEVEDGRKRSLEELRALESEARERRFPNSELLQQLKNCLSEAEACVSRALGLVSGQEAG

Kd [9]: > 45 µM
B5: KDM5C1-839 ΔAP A388P (protein)
chain: MEPGSDDFLPPPECPVFEPSWAEFRDPLGYIAKIRPIAEKSGICKIRPPADWQPPFAVEVDNFRFTPRIQRLNELEAQTRVKGGGGPPEAFGFEQPTREYTLQSFGEMADSFKADYFNMPVHMVPTELVEKEFWRLVNSIEEDVTVEYGADIHSKEFGSGFPVSDSKRHLTPEEEEYATSGWNLNVMPVLEQSVLCHINADISGMKVPWLYVGMVFSAFCWHIEDHWSYSINYLHWGEPKTWYGVPSLAAEHLEEVMKKLTPELFDSQPDLLHQLVTLMNPNTLMSHGVPVVRTNQCAGEFVITFPRAYHSGFNQGYNFAEAVNFCTADWLPAGRQCIEHYRRLRRYCVFSHEELICKMAACPEKLDLNLAAAVHKEMFIMVQEERRLRKALLEKGITEAEREAFELLPDDERQCIKCKTTCFLSALACYDCPDGLVCLSHINDLCKCSSSRQYLRYRYTLDELPAMLHKLKVRAESFDTWANKVRVALEVEDGRKRSLEELRALESEARERRFPNSELLQQLKNCLSEAEACVSRALGLVSGQEAG

koff (Avitag-PHD1 [5]): 2.2 s⁻¹
koff (Avitag-PHD1 [6]): 0.04 s⁻¹
Binder: Ac-KEELSHSPEPCTKMTMRLRR-NH2 [KDM5C (295–314) peptide]

Continued, binder first:

Binder: ARTKQTARKSTGGKAPRK [H3 (1–18) tail peptide]
Kd [1]: 140 µM
Kd (PHD1 D343A mutant): > 1.45 mM

B1: ARID (KDM5C residues 73–188) (domain or fragment)
chain: NELEAQTRVKLNYLDQIAKFWEIQGSSLKIPNVERRILDLYSLSKIVVEEGGYEAICKDRRWARVAQRLNYPPGKNIGSLLRSHYERIVYPYEMYQSGANLVQCNTRPFDNEEKDK
Kd [2]: 31 µM
Kd [3]: 22 µM

Binder: ARTK(Me2)QTARKSTGGKAPRK [H3K4me2 (1–18) peptide]
Kd [10]: > 0.9 mM

Binder: ARTK(Me)QTARKSTGGKAPRK [H3K4me1 (1–18) peptide]
Kd [11]: 313 µM

Binder: ARTK(Me3)QTARKSTGGKAPRK [H3K4me3 (1–18) peptide]
Kd [10]: > 1.5 mM
